From the supplement of paper PMC10724198 come the findings set out here.

± gives the standard deviation of the averaged measurements.

This data set has as its system Saccharomyces cerevisiae. The data set can be described thus: protein stability index of tFT-peptide fusion (C-terminal peptide) (PSI (0-1 scale)); higher = more stable (slower turnover). As to conditions: temperature: 30 C. The procedure:
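MPS profiling in S. cerevisiae of the yeast C-terminome library: the last 12 aa of each annotated ORF are fused to the C-terminus of a sfGFP-mCherry timer, after a GGGS linker. Cells are FACS-sorted into 8 mCherry/sfGFP bins and deep-sequenced. PSI runs from 0 (unstable) to 1 (stable); wild type and das1Δ backgrounds, two technical replicates each.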

[1] abbreviates: genetic background: das1 deletion.

For the sequence EIKQRNLRMQRQ [MPO1 C-terminal 12 aa], the protein stability index stood at 0.683 ± 0.026 under setting [1] and 0.678 ± 0.01 (genetic background: wild type).

EKAKKSLSKMFS [CPR6 C-terminal 12 aa] had a protein stability index under setting [1] of 0.688 ± 0.018 and a protein stability index (genetic background: wild type) of 0.6927 ± 0.0033.

For the sequence EKLKLLNSQQKD [PET191 C-terminal 12 aa], the protein stability index came to 0.682 ± 0.014 under setting [1] and 0.722 ± 0.029 (genetic background: wild type).

As to ELASSILKELKL [KIN1 C-terminal 12 aa], the protein stability index was 0.707 ± 0.022 under setting [1] and 0.703 ± 0.054 (genetic background: wild type).

For ELDDILGSDSDF [MPH1 C-terminal 12 aa], the protein stability index reads like this: under setting [1], 0.711 ± 0.02; (genetic background: wild type) 0.6837 ± 0.0036.

Regarding ELEELLEPILAN [GRX1 C-terminal 12 aa], the protein stability index by setting is: under setting [1], 0.406 ± 0.028; (genetic background: wild type) 0.4708 ± 0.00077.

Regarding ELFTIISRIIED [TSL1 C-terminal 12 aa], the protein stability index is 0.702 ± 0.016 under setting [1] and 0.711 ± 0.046 (genetic background: wild type).

For ELIEKLKEVKAI [CIR1 C-terminal 12 aa], the protein stability index was determined as 0.686 ± 0.018 under setting [1] and 0.34 ± 0.013 (genetic background: wild type).

Regarding ELKINNDGRLVN [SEC66 C-terminal 12 aa], the protein stability index runs as follows: under setting [1], 0.7137 ± 0.0053; (genetic background: wild type) 0.714 ± 0.074.

The sequence ELKKRFDALRRK [IST1 C-terminal 12 aa] had a protein stability index under setting [1] of 0.686 ± 0.015 and a protein stability index (genetic background: wild type) of 0.647 ± 0.0071.

Take ELLRIHNSHLRN [FOL3 C-terminal 12 aa]: the protein stability index by setting is: under setting [1], 0.715 ± 0.031; (genetic background: wild type) 0.709 ± 0.042.

As to ELWYKSFGPHDE [APC1 C-terminal 12 aa], the protein stability index stood at 0.7 ± 0.027 under setting [1] and 0.7187 ± 0.0068 (genetic background: wild type).

As to ENWIHVSCLSFM [LIN1 C-terminal 12 aa], the protein stability index by setting is: under setting [1], 0.6634 ± 0.0048; (genetic background: wild type) 0.6503 ± 0.0039.

For EQITSSLQEASE [FSH1 C-terminal 12 aa], the protein stability index by setting is: under setting [1], 0.67 ± 0.016; (genetic background: wild type) 0.656 ± 0.0082.

Regarding EQNFHFQFPPTN [IOC2 C-terminal 12 aa], the protein stability index is, setting by setting: under setting [1], 0.7147 ± 0.0049; (genetic background: wild type) 0.729 ± 0.021.

Consider ERDTTTKPSKRR [KEL3 C-terminal 12 aa], for which the protein stability index by setting is: under setting [1], 0.7092 ± 0.0049; (genetic background: wild type) 0.698 ± 0.013.

Take ERNPTQRPQRRY [RPS10A C-terminal 12 aa]: the protein stability index by setting is: under setting [1], 0.728 ± 0.036; (genetic background: wild type) 0.679 ± 0.036.

For ERPIVASTSPIA [TPH3 C-terminal 12 aa], the protein stability index worked out at 0.71247 ± 4.2e-05 under setting [1] and 0.681 ± 0.0089 (genetic background: wild type).

With ERWVRMGELMHY [YBR184W C-terminal 12 aa], the protein stability index came out at 0.686 ± 0.018 under setting [1] and 0.538 ± 0.058 (genetic background: wild type).

Take ERYTSIESEIVV [APE4 C-terminal 12 aa]: the protein stability index is, setting by setting: under setting [1], 0.6735 ± 0.0063; (genetic background: wild type) 0.673 ± 0.023.

For ESKDDDDDDDWE [DOS2 C-terminal 12 aa], the protein stability index runs as follows: under setting [1], 0.709 ± 0.038; (genetic background: wild type) 0.648 ± 0.0095.

Take ESRLFISDGAVF [MON1 C-terminal 12 aa]: the protein stability index runs as follows: under setting [1], 0.696 ± 0.0082; (genetic background: wild type) 0.713 ± 0.041.

ESSSPSQLQHEA [PHO84 C-terminal 12 aa]: the protein stability index is, setting by setting: under setting [1], 0.6938 ± 0.006; (genetic background: wild type) 0.682 ± 0.024.

Turning to ESTGHVDFGQNR [OTU1 C-terminal 12 aa], the protein stability index came to 0.7 ± 0.012 under setting [1] and 0.703 ± 0.012 (genetic background: wild type).

As to ETAENIAKYIRN [NPA3 C-terminal 12 aa], the protein stability index stood at 0.682 ± 0.024 under setting [1] and 0.661 ± 0.035 (genetic background: wild type).

For ETMVRIRVDGNE [DAD2 C-terminal 12 aa], the protein stability index came out at 0.665 ± 0.027 under setting [1] and 0.676 ± 0.025 (genetic background: wild type).

Regarding EVDDDGEIDGLF [ADE3 C-terminal 12 aa], the protein stability index by setting is: under setting [1], 0.7153 ± 0.0044; (genetic background: wild type) 0.692 ± 0.021.

As to “EVPGWQEYYDKL [YOR133W; YDR385W C-terminal 12 aa]”, the protein stability index is, setting by setting: under setting [1], 0.72 ± 0.018; (genetic background: wild type) 0.71 ± 0.016.

For the sequence EVTSLYTNASNA [DPC29 C-terminal 12 aa], the protein stability index reads like this: under setting [1], 0.715 ± 0.011; (genetic background: wild type) 0.703 ± 0.049.

As to EYNLDTFIKTLR [MOT1 C-terminal 12 aa], the protein stability index under setting [1] was determined as 0.7535 ± 0.0064 and the protein stability index (genetic background: wild type) was found to be 0.6883 ± 0.0023.

Regarding FAKLAAIPCSNA [YMR265C C-terminal 12 aa], the protein stability index under setting [1] came out at 0.553 ± 0.0059 and the protein stability index (genetic background: wild type) came out at 0.5659 ± 0.0046.

FEHFHCVLDQIL [YDR203W C-terminal 12 aa]: the protein stability index is, setting by setting: under setting [1], 0.7056 ± 0.0043; (genetic background: wild type) 0.6954 ± 0.0031.

As for FFFATQRDLKRT [YDR431W C-terminal 12 aa], the protein stability index is, setting by setting: under setting [1], 0.715 ± 0.05; (genetic background: wild type) 0.733 ± 0.019.

As for FFMSDMNLSKEG [ATG13 C-terminal 12 aa], the protein stability index was determined as 0.752 ± 0.016 under setting [1] and 0.654 ± 0.048 (genetic background: wild type).

Turning to “FFPFITIIFFHS [YCR024C-B C-terminal 12 aa]”, the protein stability index was determined as 0.324 ± 0.026 under setting [1] and 0.299 ± 0.01 (genetic background: wild type).

On to FGIKKNDLKKSN [GSF2 C-terminal 12 aa], for which the protein stability index under setting [1] came to 0.708 ± 0.014 and the protein stability index (genetic background: wild type) worked out at 0.705 ± 0.023.

As to FGRKLKKIFGRK [SEG2 C-terminal 12 aa], the protein stability index by setting is: under setting [1], 0.675 ± 0.035; (genetic background: wild type) 0.6421 ± 0.0063.

As to FIEALAKSVNEL [UGA1 C-terminal 12 aa], the protein stability index is 0.7371 ± 0.0042 under setting [1] and 0.689 ± 0.054 (genetic background: wild type).

As for FKELLGYTLVSA [VSB1 C-terminal 12 aa], the protein stability index is, setting by setting: under setting [1], 0.356 ± 0.03; (genetic background: wild type) 0.391 ± 0.0093.

In turn, FKITTEHGTTQQ [CRT10 C-terminal 12 aa] yielded a protein stability index under setting [1] of 0.675 ± 0.0095 and a protein stability index (genetic background: wild type) of 0.685 ± 0.031.

For the sequence FKLKDEYLLIDD [SAS2 C-terminal 12 aa], the protein stability index stood at 0.69 ± 0.016 under setting [1] and 0.666 ± 0.031 (genetic background: wild type).

Take FLIHTPKHPPPT [POG1 C-terminal 12 aa]: the protein stability index by setting is: under setting [1], 0.698 ± 0.011; (genetic background: wild type) 0.725 ± 0.021.

For the sequence FMWLLLALPVVF [FLO11 C-terminal 12 aa], the protein stability index is, setting by setting: under setting [1], 0.362 ± 0.027; (genetic background: wild type) 0.393 ± 0.019.

With FRALAELYNLVL [GAS5 C-terminal 12 aa], the protein stability index is, setting by setting: under setting [1], 0.701 ± 0.02; (genetic background: wild type) 0.681 ± 0.013.

Consider FRSTRSNTPNYT [HDA2 C-terminal 12 aa], for which the protein stability index came out at 0.728 ± 0.018 under setting [1] and 0.737 ± 0.046 (genetic background: wild type).

For FTAVLGTYLLTL [SDH3 C-terminal 12 aa], the protein stability index is, setting by setting: under setting [1], 0.6494 ± 0.005; (genetic background: wild type) 0.645 ± 0.0016.

As to FVLKTLNMNVTN [OST1 C-terminal 12 aa], the protein stability index came out at 0.681 ± 0.0095 under setting [1] and 0.668 ± 0.0024 (genetic background: wild type).

With FVRKIYSSIKVD [EMP70 C-terminal 12 aa], the protein stability index reads like this: under setting [1], 0.665 ± 0.025; (genetic background: wild type) 0.614 ± 0.04.

“FYNIHDERIREQ [YKL162C-A C-terminal 12 aa]”: the protein stability index by setting is: under setting [1], 0.746 ± 0.013; (genetic background: wild type) 0.657 ± 0.078.

On to GATDTSCYKERG [MRPL27 C-terminal 12 aa], for which the protein stability index is, setting by setting: under setting [1], 0.695 ± 0.026; (genetic background: wild type) 0.702 ± 0.085.

As for GEEKKHLKMASP [MDE1 C-terminal 12 aa], the protein stability index stood at 0.6905 ± 0.0062 under setting [1] and 0.704 ± 0.035 (genetic background: wild type).

As for GELFQIVSNQSS [STE6 C-terminal 12 aa], the protein stability index reads like this: under setting [1], 0.702 ± 0.017; (genetic background: wild type) 0.679 ± 0.0082.

As to GFKGFSNKRVKG [MSS18 C-terminal 12 aa], the protein stability index was found to be 0.689 ± 0.015 under setting [1] and 0.6964 ± 0.0036 (genetic background: wild type).

Turning to GFRLRFWKSLGF [CYT2 C-terminal 12 aa], the protein stability index runs as follows: under setting [1], 0.706 ± 0.029; (genetic background: wild type) 0.716 ± 0.023.

With GGFDDGFDGSDF [WWM1 C-terminal 12 aa], the protein stability index under setting [1] is 0.719 ± 0.012 and the protein stability index (genetic background: wild type) is 0.728 ± 0.0098.

Consider “GGKIFSLKLTLI [YPR108W-A C-terminal 12 aa]”, for which the protein stability index by setting is: under setting [1], 0.673 ± 0.011; (genetic background: wild type) 0.384 ± 0.023.

As to GGLSDIGKNTSN [HUG1 C-terminal 12 aa], the protein stability index was found to be 0.693 ± 0.013 under setting [1] and 0.684 ± 0.016 (genetic background: wild type).

As to GGNSSKKGKKKR [RQC2 C-terminal 12 aa], the protein stability index runs as follows: under setting [1], 0.6835 ± 0.00078; (genetic background: wild type) 0.724 ± 0.022.

In the case of GGRNQYGGDDDY [DDR48 C-terminal 12 aa], the protein stability index under setting [1] turned out to be 0.698 ± 0.015 and the protein stability index (genetic background: wild type) was 0.6858 ± 0.0067.

Regarding GKKLKKIFGRKK [SEG1 C-terminal 12 aa], the protein stability index runs as follows: under setting [1], 0.719 ± 0.006; (genetic background: wild type) 0.6627 ± 0.0025.

As to GKTDYLDTKLIF [EKI1 C-terminal 12 aa], the protein stability index by setting is: under setting [1], 0.739 ± 0.02; (genetic background: wild type) 0.726 ± 0.0084.

For the sequence GKVAKYIFDNIC [BNA7 C-terminal 12 aa], the protein stability index came to 0.696 ± 0.015 under setting [1] and 0.722 ± 0.024 (genetic background: wild type).

Consider GKVLFKPSSSIF [YBR064W C-terminal 12 aa], for which the protein stability index by setting is: under setting [1], 0.719 ± 0.011; (genetic background: wild type) 0.695 ± 0.017.

Take GKYFLKEEQDEI [YUR1 C-terminal 12 aa]: the protein stability index was determined as 0.692 ± 0.025 under setting [1] and 0.7058 ± 0.0067 (genetic background: wild type).

Turning to GKYNIKVKLNFI [VAR1 C-terminal 12 aa], the protein stability index is, setting by setting: under setting [1], 0.704 ± 0.027; (genetic background: wild type) 0.69 ± 0.096.

GLQFHFKAEHKD [PHO86 C-terminal 12 aa]: the protein stability index came out at 0.701 ± 0.014 under setting [1] and 0.686 ± 0.058 (genetic background: wild type).

As for GLSDEEDSSEED [RRT14 C-terminal 12 aa], the protein stability index reads like this: under setting [1], 0.679 ± 0.00072; (genetic background: wild type) 0.698 ± 0.021.
